Experimental data published in the DeepSol protein solubility set.

Experiment: soluble on expression in E. coli; label from the status in PepcDB or PDB records

| Sequence | soluble on expression in E. coli |
| --- | --- |
| MNKETLQLFRTLTELQGASGFEHDVRRFMKQELSKYADEIVQDGLGSVFGLKKGDETGPRVLVAGHMDEVGFMVTQITKNGMLRFQTLGGWWSQVLLAQRVQVMTKNGPVIGVVGSIPPHLLSDAQRAKPMDIKNMLIDIGADSYEDAIEIGVKPGQQIVPICPFTPMANEKKIMAKAWDNRYGCGLAIELLKELKDETLPNTLYSGATVQEEVGLRGAQTAANMIQPDIFYALDASPANDASGDKTQFGQLGKGALLRIYDRTMVTHRGIREFILDTAETNNIPYQYFISQGGTDAGRVHTSNSGIPSAVIGVCARYVHTHASILHVDDYAAAKELITKLVRTTDKTTLETIKNNA | not soluble |
| MNKIIISIGREFGSGGRRIGELLAKELEVPCYDRHLIEEAACRSGFETKELEEADEMKANRFLFKVPAKSNQYTGYGKPMNDTLFAIQSELIRKYADAGSCVIVGRCADKVLEKQEGLISVFIYAPLEARVEEIRRRYETDGEEALYLVRQADKIRRNYYNYYAKKKWGDRSSYDLMIDSSHFTDREVAAMIRAVSEERKAEWEENKFSTPQG | not soluble |
| MNKKEIFKLAKGFRGRAKNCIRIARERVEKALQYSYRDRRNKKREMRGLWIERINAGSRQHGVNYGNFIHGLMKENIQLNRKVLSELSMHEPYSFKALVDVSRKSFPGNKNVVQASRKVDISSINA | soluble |
| MNKLDTSQLKIASMGGGHGLFQTLRAVRQLNPASIDAIVTVADDGGSSGRIRRELGQIPPGDLRMALAALAPFDDEGLQWETLLQHRFGGHGALAGHAVGNLIIAGLCDTLGSEIAALDAVAKVIKAEGRVLPACAEPLEIAAEVSGLDDDPRIMREVIGQVAVASTPGTVRRVRLIPERPEATEESVEAIENADLVTLGPGSWFSSVIPHVLVPGIPTALATTKALRVVVLNLSPEPGETAGFTAERHIHILSQHAQTLRADVILVDEGLIPHKGERVHLERAAAVLGAQISYHDLSETDPSGRRIHRHDPAKLAEALRLQLLEHHHHHH | soluble |
| MNKLYIGNLSENAAPSDLESIFKDAKIPVSGPFLVKTGYAFVDCPDESWALKAIEALSGKIELHGKPIEVEHSVPKRQRIRKLQIRNIPPHLQWEVLDSLLVQYGVVESCEQVNTDSETAVVNVTYSSKDQARQALDKLNGFQLENFTLKVAYIPDEMAAQQNPLQQPRGRRGLGQRGSSRQGSPGSVSKQKPCDLPLRLLVPTQFVGAIIGKEGATIRNITKQTQSKIDVHRKENAGAAEKSITILSTPEGTSAACKSILEIMHKEAQDIKFTEEIPLKILAHNNFVGRLIGKEGRNLKKIEQDTDTKITISPLQELTLYNPERTITVKGNVETCAKAEEEIMKKIRESYENDIASMNLQAHLIPGLNLNALGLFPPTSGMPPPTSGPPSAMTPPYPQFEQSETETVHLFIPALSVGAIIGKQGQHIKQLSRFAGASIKIAPAEAPDAKVRMVIITGPPEAQFKAQGRIYGKIKEENFVSPKEEVKLEAHIRVPSFAAGRVIGKGGKTVNELQNLSSAEVVVPRDQTPDENDQVVVKITGHFYACQVAQRKIQEILTQVKQHQQQKALQSGPPQSRRK | soluble |
| MNKLYIGNLSPAVTADDLRQLFGDRKLPLAGQVLLKSGYAFVDYPDQNWAIRAIETLSGKVELHGKIMEVDYSVSKKLRSRKIQIRNIPPHLQWEVLDGLLAQYGTVENVEQVNTDTETAVVNVTYATREEAKIAMEKLSGHQFENYSFKISYIPDEEVSSPSPPQRAQRGDHSSREQGHAPGGTSQARQIDFPLRILVPTQFVGAIIGKEGLTIKNITKQTQSRVDIHRKENSGAAEKPVTIHATPEGTSEACRMILEIMQKEADETKLAEEIPLKILAHNGLVGRLIGKEGRNLKKIEHETGTKITISSLQDLSIYNPERTITVKGTVEACASAEIEIMKKLREAFENDMLAVNQQANLIPGLNLSALGIFSTGLSVLSPPAGPRGAPPAAPYHPFTTHSGYFSSLYPHHQFGPFPHHHSYPEQEIVNLFIPTQAVGAIIGKKGAHIKQLARFAGASIKIAPAEGPDVSERMVIITGPPEAQFKAQGRIFGKLKEENFFNPKEEVKLEAHIRVPSSTAGRVIGKGGKTVNELQNLTSAEVIVPRDQTPDENEEVIVRIIGHFFASQTAQRKIREIVQQVKQQEQKYPQGVASQRSK | soluble |
| MNKRENPIYKVIFLNQGQVFEMYAKQIYQSDLWGFLEIEEFVFGERTQVVVDPSEEKLKAQFEGVLRSFVPMHAIVRIDEVERLGTPKISEAKGAGNVMPFPMPMPGKSD | not soluble |
| MNKVAQYYRELVASLNERLRNGERDIDALVEQARERVIKTGELTRTEIDELTRAVRRDLEEFAMSYEESLKEESDSVFMRVIKESLWQELADITDKTQLEWREIFQDLNHHGVYHSGEVVGLGNLVCEKCHFHLPIYTPEVLTLCPKCGYDQFQRRPFEP | not soluble |
| MNKVVLLCRPGFEKECAAEITDKAGQREIFGFARVKENAGYVIYECYQPDDGDKLIRELPFSSLIFARQWFVVGELLQHLPPEDRITPIVGMLQGVVEKGGELRVEVADTNESKELLKFCRKFTVPLRAALRDAGVLANYETPKRPVVHVFFIAPGCCYTGYSYSNNNSPFYMGIPRLKFPADAPSRSTLKLEEAFHVFIPADEWDERLANGMWAVDLGACPGGWTYQLVKRNMWVYSVDNGPMAQSLMDTGQVTWLREDGFKFRPTRSNISWMVCDMVEKPAKVAALMAQWLVNGWCRETIFNLKLPMKKRYEEVSHNLAYIQAQLDEHGINAQIQARQLYHDREEVTVHVRRIWAAVGGRRDER | soluble |
| MNLAKRILQGEQLTKETVLKIYEDTNIDTLDLLNEAYILRKHYFGKKVKLNMILNAKSGICPENCGYCGQSRDIKQKQRYALIPEEQIIDGAKVAHDNHIGTYCIVMSGRGPSDKEVDHISNTVRTIKSQHPQLKICACLGLTNDEQAKKLKSAGVDRYNHNINTSENYHDNVVTTHSYKDRTDTIELMKANNISPCSGVICGMGESNQDIVDMAFALKEMDADSIPINFLHPIKGTKFGSMDDLTPMKCLRIVALFRLINPTKEIRIAGGREVNLRSLQPLALKAANSIFVGDYLITGGQPNQLDYDMINDLGFEIDYDTCENKENKNDVSRAN | not soluble |
| MNLEMLESQPVPEIDTLREEIDRLDAEILALVKRRAEVSKAIGKARMASGGTRLVHSREMKVIERYSELGPDGKDLAILLLRLGRGRLGH | soluble |
| MNLGFRVTGKFVRELLDVLDEIAEEIRQEEKEKYPYTEWERKREVVKERLRKLPEYVREAISVITVQKRVGRPKKVDLEKRVMLFLFARLMDKSNRDIEELLELFEPLFGIKVSYKTIERLYSDEEVRMALHNLFILLLREEGVSGDFSGDGTGYSLTITKHYRSNPKRKGKDFRYVFRIIDIDTGMYVGFGYSDRSEKDAFEKALGMLKSMGVKVNSISLDKYYSSRKTLRLFDAETAVYVIPKRNLARIGFDWLRVIERIVEAPYRFLKRYFKRNLSEAGFSADKRRFGWLIRQRREDRREMALFAVGLWHNVFAVRVVR | not soluble |
| MNLTNYHSHTLYCDGRAGMEDFIRFAISRGFTSYGISSHAPLPFPTHWTMEWDRMDDYLDEFTRMKEKYASEIELAVGLEIDYLNEDSNPSVRRFQELPLDYRIGSVHLLYNDRDEVVDIDVCAEVFRDIVDQHFGGDLDRVIHLYYDRLLRMVELGGFDILGHADKMHHNAACYRPGLLDESWYDALIHDYFSAVAAKGYIVEINTKALHHLNTFFPNERYFPLLKELGVRVQVNSDSHYPERINSGRPEALAALQKAGFETVTEWHGGKWIEMPLLEHHHHHH | soluble |
| MNMPKRYSEMTPHELREEIGALKEQAVKAEQLGIVNEFDVLMRKMAMARAYMTDINKFHIGETYELVEEPGVLFKITYFNGVFAWGYKQNDNEEIGIPISLLQEK | not soluble |
| MNNASGGTHSKGTATTGGTTTQAAKTNLTTTAAKGRTATPSLDEETRKRLMVEGKCFHCFKPGHISPNYLEKQIKQLKVLEQPVPEEQGVSENN | not soluble |
| MNNIQTNTRDQDSLEYILQLELDNIRLFLELLEHERNLLAAGNLDDLALLVADKDRLIDQFARLDMRRNRFLNAAGLPEGTQGMNAWVSGSDEESTVARDWEELLGLADLAKQLNQTNAVITSSWLQYTRRTLNALHSAAGRPPLYNTKGQTT | not soluble |
| MNNKKINFGCCNWTRDAMKWRQRFEAADVTWVSRTNNGPADLLAKHRLPDNCSFQYHYYVPPFIVSALHCNHS | soluble |
